Reference: publication PMC3326531

How the values were obtained:
[1] = biological target: SENP1 (415–644) (human) (UniProt Q9P0U3)
[2] = biological target: SENP1 C603A (415–644) (human) (UniProt Q9P0U3); test: ITC
SENP1 C603A (415–644) (human), sequence (Q9P0U3 415-644 C603A): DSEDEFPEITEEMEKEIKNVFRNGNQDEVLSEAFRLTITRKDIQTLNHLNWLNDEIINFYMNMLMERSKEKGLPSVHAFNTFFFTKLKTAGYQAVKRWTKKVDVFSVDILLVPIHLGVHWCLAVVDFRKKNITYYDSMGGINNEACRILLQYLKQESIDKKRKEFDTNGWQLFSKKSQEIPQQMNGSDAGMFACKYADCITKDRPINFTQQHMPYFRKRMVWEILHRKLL

SENP1 (415–644) (human), sequence (Q9P0U3 415-644): as the sequence (Q9P0U3 415-644 C603A) above, with A189C counted along it

Row | Substance | apparent Km, Km(app), of cleavage by SENP1 (FRET-based protease assay) [1] [µM] | IC50 of product inhibition of SENP1 cleavage of YFP–RanGAP1–SUMO-2–ECFP (500 nM) [1] [µM] | IC50 of product inhibition of SENP1 cleavage of YFP–SUMO-2-FL–ECFP (500 nM) [1] [µM] | Kd [2] [µM] | dH [2] [kcal/mol]
1 | YFP–RanGAP1–SUMO-2–ECFP (from UniProt P46060 418-587; P55854 1-93) (complex) | 0.242 |  |  |  | 
2 | mature SUMO-2 (SUMO-2-GG) (from UniProt P55854 1-93) (natural protein) |  | 1.6 | 2.23 | 0.00856 | -14.5
